Data taken from PMC6509256.

How the values were obtained:
[1] = target: PcVps75ΔC (residues 1-223), crystallised as a dimer (Pneumocystis carinii); assay: crystal structure
[2] = target: PcVps75ΔCM-SeMet (residues 1-223, E56 and N127 mutated to methionine, selenomethionine-labeled), cry (Pneumocystis carinii); assay: crystal structure

Row | Substance | stoichiometry N [1] | stoichiometry N [2]
1 | PcVps75ΔC (residues 1-223), crystallised as a dimer (domain or fragment) | 2 | –
2 | PcVps75ΔCM-SeMet (residues 1-223, E56 and N127 mutated to methionine, selenomethionine-labeled), cry (domain or fragment) | – | 4
